Laboratory results as given in patent US11306156.
Values joined by “and” are separate entries in the source; they are usually repeats but may differ in a detail not shown here. Equal entries are not always repeated.

How the values were obtained:
[1] = biological target: D3H44 light chain F116A_L135V (Kabat), N-terminal HA or FLAG tag; assay: LCCA co-expression, competing light chain m33, L1:L2 DNA 1:3 normalized to 1:1, SPR tag read-out
[2] = biological target: D3H44 light chain F116A_L135V (Kabat), N-terminal HA or FLAG tag; assay: LCCA co-expression, competing light chain m33, L1:L2 DNA 1:9 normalized to 1:1, SPR tag read-out
[3] = biological target: D3H44 light chain S131T_L135F_S176F_T178F (Kabat), N-terminal HA or FLAG tag; assay: LCCA co-expression, competing light chain m34, L1:L2 DNA 1:3 normalized to 1:1, SPR tag read-out
[4] = biological target: D3H44 light chain S131T_L135F_S176F_T178F (Kabat), N-terminal HA or FLAG tag; assay: LCCA co-expression, competing light chain m34, L1:L2 DNA 1:9 normalized to 1:1, SPR tag read-out
[5] = biological target: D3H44 light chain L135W_S176L (Kabat), N-terminal HA or FLAG tag; assay: LCCA co-expression, competing light chain m34, L1:L2 DNA 1:3 normalized to 1:1, SPR tag read-out
[6] = biological target: D3H44 light chain F116A_L135V (Kabat), N-terminal HA or FLAG tag; assay: LCCA co-expression, competing light chain m35, L1:L2 DNA 1:3 normalized to 1:1, SPR tag read-out
[7] = biological target: D3H44 light chain L135W_S176L (Kabat), N-terminal HA or FLAG tag; assay: LCCA co-expression, competing light chain m34, L1:L2 DNA 1:9 normalized to 1:1, SPR tag read-out
[8] = biological target: D3H44 light chain F116A_L135V (Kabat), N-terminal HA or FLAG tag; assay: LCCA co-expression, competing light chain m35, L1:L2 DNA 1:9 normalized to 1:1, SPR tag read-out
[9] = biological target: D3H44 light chain Q124R_Q160K_T178R (Kabat) with N-terminal HA or FLAG tag; assay: LCCA, SPR read-out of light-chain tags; light-chain DNA 1:3 normalized to 1:1; competing light chain m27
[10] = biological target: D3H44 light chain Q124R_Q160K_T178R (Kabat) with N-terminal HA or FLAG tag; assay: LCCA, SPR read-out of light-chain tags; light-chain DNA 1:3 normalized to 1:1; competing light chain m17
[11] = biological target: D3H44 light chain Q124E_V133E_Q160F (Kabat) with N-terminal HA or FLAG tag; assay: LCCA, SPR read-out of light-chain tags; light-chain DNA 1:3 normalized to 1:1; competing light chain m23
[12] = biological target: D3H44 light chain Q124E_T178E (Kabat) with N-terminal HA or FLAG tag; assay: LCCA, SPR read-out of light-chain tags; light-chain DNA 1:3 normalized to 1:1; competing light chain m20
[13] = biological target: D3H44 light chain Q124E_Q160E_T178E (Kabat) with N-terminal HA or FLAG tag; assay: as above
[14] = biological target: D3H44 light chain Q124E_Q160E_T180E (Kabat) with N-terminal HA or FLAG tag; assay: as above
[15] = biological target: D3H44 light chain S131E (Kabat) with N-terminal HA or FLAG tag; assay: as above
[16] = biological target: D3H44 light chain Q124R (Kabat) with N-terminal HA or FLAG tag; assay: LCCA, SPR read-out of light-chain tags; light-chain DNA 1:3 normalized to 1:1; competing light chain m24
[17] = biological target: D3H44 light chain Q124R_Q160K_T178R (Kabat) with N-terminal HA or FLAG tag; assay: LCCA, SPR read-out of light-chain tags; light-chain DNA 1:3 normalized to 1:1; competing light chain m30
[18] = biological target: D3H44 light chain Q124R_Q160K_T178R (Kabat) with N-terminal HA or FLAG tag; assay: LCCA, SPR read-out of light-chain tags; light-chain DNA 1:3 normalized to 1:1; competing light chain m25
[19] = biological target: D3H44 light chain Q124R_Q160K_T178R (Kabat) with N-terminal HA or FLAG tag; assay: LCCA, SPR read-out of light-chain tags; light-chain DNA 1:3 normalized to 1:1; competing light chain m22
[20] = biological target: D3H44 light chain Q124E_S131T_T178F_T180E (Kabat) with N-terminal HA or FLAG tag; assay: LCCA, SPR read-out of light-chain tags; light-chain DNA 1:3 normalized to 1:1; competing light chain m20
[21] = biological target: D3H44 light chain Q124E_T180E (Kabat) with N-terminal HA or FLAG tag; assay: LCCA, SPR read-out of light-chain tags; light-chain DNA 1:3 normalized to 1:1; competing light chain m18
[22] = biological target: D3H44 light chain Q124E_Q160E_T180E (Kabat) with N-terminal HA or FLAG tag; assay: as above
[23] = biological target: D3H44 light chain Q124R_T178R (Kabat) with N-terminal HA or FLAG tag; assay: LCCA, SPR read-out of light-chain tags; light-chain DNA 1:3 normalized to 1:1; competing light chain m22
[24] = biological target: D3H44 light chain Q124E_Q160E_T180E (Kabat) with N-terminal HA or FLAG tag; assay: LCCA, SPR read-out of light-chain tags; light-chain DNA 1:3 normalized to 1:1; competing light chain m26
[25] = biological target: D3H44 light chain T178R (Kabat) with N-terminal HA or FLAG tag; assay: LCCA, SPR read-out of light-chain tags; light-chain DNA 1:3 normalized to 1:1; competing light chain m19
[26] = biological target: D3H44 light chain Q124R_Q160K_T178R (Kabat) with N-terminal HA or FLAG tag; assay: LCCA, SPR read-out of light-chain tags; light-chain DNA 1:3 normalized to 1:1; competing light chain m29
[27] = biological target: D3H44 light chain Q124E_Q160E_T180E (Kabat) with N-terminal HA or FLAG tag; assay: LCCA, SPR read-out of light-chain tags; light-chain DNA 1:3 normalized to 1:1; competing light chain m16
[28] = biological target: D3H44 light chain Q124K_T178R (Kabat) with N-terminal HA or FLAG tag; assay: LCCA, SPR read-out of light-chain tags; light-chain DNA 1:3 normalized to 1:1; competing light chain m17
[29] = biological target: D3H44 light chain Q124R_T178R (Kabat) with N-terminal HA or FLAG tag; assay: as above
[30] = biological target: D3H44 light chain T178R (Kabat) with N-terminal HA or FLAG tag; assay: as above
[31] = biological target: D3H44 light chain Q124R_T178K (Kabat) with N-terminal HA or FLAG tag; assay: as above
[32] = biological target: D3H44 light chain Q124E_S131T_T178F_T180E (Kabat) with N-terminal HA or FLAG tag; assay: LCCA, SPR read-out of light-chain tags; light-chain DNA 1:3 normalized to 1:1; competing light chain m21
[33] = biological target: D3H44 light chain Q124E_Q160E_T180E (Kabat) with N-terminal HA or FLAG tag; assay: as above
[34] = biological target: D3H44 light chain Q124E_S131T_T178Y_T180E (Kabat) with N-terminal HA or FLAG tag; assay: LCCA, SPR read-out of light-chain tags; light-chain DNA 1:3 normalized to 1:1; competing light chain m20
[35] = biological target: D3H44 light chain Q124E_S176L_T180E (Kabat) with N-terminal HA or FLAG tag; assay: as above
[36] = biological target: D3H44 light chain Q124R_T178R (Kabat) with N-terminal HA or FLAG tag; assay: LCCA, SPR read-out of light-chain tags; light-chain DNA 1:9 normalized to 1:1; competing light chain m17
[37] = biological target: D3H44 light chain Q124R_Q160K_T178R (Kabat) with N-terminal HA or FLAG tag; assay: LCCA, SPR read-out of light-chain tags; light-chain DNA 1:3 normalized to 1:1; competing light chain m28
[38] = biological target: D3H44 light chain Q124E_Q160E_T180E (Kabat) with N-terminal HA or FLAG tag; assay: LCCA, SPR read-out of light-chain tags; light-chain DNA 1:9 normalized to 1:1; competing light chain m21
[39] = biological target: D3H44 Fab heavy chain L143E_K145T_S188L; assay: LCCA, L1:L2 DNA 1:3 normalised to 1:1, SPR of light chain tags; competitor m33
[40] = biological target: D3H44 Fab heavy chain L143A_Q179K; assay: as above
[41] = biological target: D3H44 Fab heavy chain L143E_K145T; assay: LCCA, L1:L2 DNA 1:3 normalised to 1:1, SPR of light chain tags; competitor m32

In the case of “D3H44 Fab heavy chain A139G_F174V_V190A (Kabat), C-terminal ABD2-His6 tag”, the H1L1:H1L2 normalized median ratio [1] is reported as 49 of 100, the H1L1:H1L2 normalized median ratio [2] is reported as 40 of 100 and the H1L1:H1L2 normalized median ratio [3] is reported as 51 of 100. The H1L1:H1L2 normalized median scalar value ln(r1/f1) [3] was 0.03, the H1L1:H1L2 normalized median ratio [4] was 60 of 100 and the H1L1:H1L2 normalized median scalar value ln(r1/f1) [4] was 0.42.
For “D3H44 Fab heavy chain A139G_V190A (Kabat), C-terminal ABD2-His6 tag”, the H1L1:H1L2 normalized median ratio [5] was 32 of 100, the H1L1:H1L2 normalized median scalar value ln(r1/f1) [5] was -0.77 and the H1L1:H1L2 normalized median ratio [6] was 68 of 100. For the same substance, the H1L1:H1L2 normalized median ratio [7] was 72 of 100, the H1L1:H1L2 normalized median scalar value ln(r1/f1) [7] was 0.94 and the H1L1:H1L2 normalized median ratio [8] was 28 of 100.
For “D3H44 Fab heavy chain A139W_S188L (Kabat), C-terminal ABD2-His6 tag”, the H2L2:H2L1 normalized median ratio [1] was 59 of 100, the H2L2:H2L1 normalized median ratio [2] was 55 of 100 and the H2L2:H2L1 normalized median ratio [3] was 41 of 100. For the same substance, the H2L2:H2L1 normalized median ratio [5] was 34 of 100, the H2L2:H2L1 normalized median ratio [6] was 66 of 100 and the H2L2:H2L1 normalized median ratio [4] was 45 of 100. The H2L2:H2L1 normalized median ratio [7] was 25 of 100 and the H2L2:H2L1 normalized median ratio [8] was 75 of 100.
An H1L1:H1L2 normalized median ratio [9] of 59%, an H1L1:H1L2 normalized median scalar value ln(r1/f1) [9] of 0.36 and an H1L1:H1L2 normalized median ratio [10] of 72% were found for “D3H44 Fab heavy chain L143E_K145T (Kabat) with C-terminal ABD2-His6 tag” in this work. The H1L1:H1L2 normalized median scalar value ln(r1/f1) [10] was 0.95 and 0.96, the H1L1:H1L2 normalized median ratio [11] was 15% and the H1L1:H1L2 normalized median ratio [12] was 41%. For the same substance, the H1L1:H1L2 normalized median ratio [13] was 41%, the H1L1:H1L2 normalized median ratio [14] was 28% and the H1L1:H1L2 normalized median ratio [15] was 53%. The H1L1:H1L2 normalized median ratio [16] was 85%, the H1L1:H1L2 normalized median scalar value ln(r1/f1) [16] was 1.75 and the H1L1:H1L2 normalized median ratio [17] was 47%. The H1L1:H1L2 normalized median scalar value ln(r1/f1) [17] was -0.14, the H1L1:H1L2 normalized median ratio [18] was 59% and the H1L1:H1L2 normalized median scalar value ln(r1/f1) [18] was 0.37.
An H2L2:H2L1 normalized median ratio [19] of 4%, an H2L2:H2L1 normalized median ratio [20] of 96% and an H2L2:H2L1 normalized median ratio [15] of 97% were found for “D3H44 Fab heavy chain Q179R (Kabat) with C-terminal ABD2-His6 tag” in this work. For the same substance, the H2L2:H2L1 normalized median ratio [17] was 3%.
An H2L2:H2L1 normalized median ratio [21] of 96%, an H2L2:H2L1 normalized median ratio [22] of 72% and an H2L2:H2L1 normalized median ratio [23] of 10% were found for “D3H44 Fab heavy chain S186R (Kabat) with C-terminal ABD2-His6 tag” in this work. It also gave an H2L2:H2L1 normalized median ratio [19] of 10%, an H2L2:H2L1 normalized median ratio [24] of 83% and an H2L2:H2L1 normalized median ratio [9] of 4%. The H2L2:H2L1 normalized median ratio [25] was 4%, the H2L2:H2L1 normalized median ratio [26] was 12% and the H2L2:H2L1 normalized median ratio [27] was 82%. The H2L2:H2L1 normalized median ratio [28] was 18%, the H2L2:H2L1 normalized median ratio [29] was 19% and the H2L2:H2L1 normalized median ratio [30] was 28%. It also gave an H2L2:H2L1 normalized median ratio [31] of 17%, an H2L2:H2L1 normalized median ratio [10] of 20% and an H2L2:H2L1 normalized median ratio [32] of 90%. For the same substance, the H2L2:H2L1 normalized median ratio [33] was 81%, the H2L2:H2L1 normalized median ratio [34] was 88% and the H2L2:H2L1 normalized median ratio [12] was 96%. For the same substance, the H2L2:H2L1 normalized median ratio [20] was 90%, the H2L2:H2L1 normalized median ratio [13] was 95% and the H2L2:H2L1 normalized median ratio [35] was 95%. It also gave an H2L2:H2L1 normalized median ratio [14] of 80%, an H2L2:H2L1 normalized median ratio [36] of 14% and an H2L2:H2L1 normalized median ratio [18] of 5%. For the same substance, the H2L2:H2L1 normalized median ratio [37] was 5% and the H2L2:H2L1 normalized median ratio [38] was 86%.
An H2L2:H2L1 normalized median ratio [39] of 44%, an H1L1:H1L2 normalized median ratio [40] of 96% and an H1L1:H1L2 normalized median scalar value ln(r1/f1) [40] of 3.13 were found for D3H44 light chain Q124E_V133Y_T180E in this work.
An H1L1:H1L2 normalized median scalar value ln(r1/f1) [41] of -0.16 was found for D3H44 light chain Q124R_T178R in this work.
